According to publication PMC11199421:
pKd: −log10 of the molar value.

Target: Phospholipase A1 (PlaA1) from Serratia marcescens, purified (Serratia marcescens)
Assay: SPR; Biacore T200; PlaA1 as ligand (diluted to 20 µg/mL), ∆N27 PlaS as analyte at 0, 0.156, 0.3125, 0.625, 1.25, 2.5 and 5 µM

## N-terminal truncated PlaS (∆N27 PlaS) from Serratia marcescens, purified (domain or fragment)
  pKd: 8.07
  koff: 1.26e-05 s⁻¹
  kon: 1480 M⁻¹ s⁻¹
